Experimental data taken from WO2014037419A1 (dated 2014).

Experiments:
[1] = biological target: T1, Mouse CD74 on cells (C57Black/6 PECs, MC-38, 3LL) (mouse) (UniProt P04441); assay: FACS, PECs of WT mice, APC-labeled MIF 200ng pre-incubated with the small molecule ISO-1 (20 nM)
T1 sequence: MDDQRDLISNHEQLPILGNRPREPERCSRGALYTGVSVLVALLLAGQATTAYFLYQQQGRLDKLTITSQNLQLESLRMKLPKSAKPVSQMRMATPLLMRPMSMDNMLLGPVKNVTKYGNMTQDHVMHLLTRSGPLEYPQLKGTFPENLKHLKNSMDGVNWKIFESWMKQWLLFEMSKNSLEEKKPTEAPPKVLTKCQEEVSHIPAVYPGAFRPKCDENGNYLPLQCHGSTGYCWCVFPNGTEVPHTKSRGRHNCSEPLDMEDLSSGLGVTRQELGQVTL

[2] = biological target: T1, Mouse CD74 on cells (C57Black/6 PECs, MC-38, 3LL) (mouse); assay: FACS, PECs of MIF-/- mice, APC-labeled MIF 200ng alone (cells without MIF: 25.6)
[3] = biological target: T1, Mouse CD74 on cells (C57Black/6 PECs, MC-38, 3LL) (mouse); assay: FACS, PECs of MIF-/- mice, APC-labeled MIF 200ng pre-incubated with the small molecule ISO-1 (20 nM)
[4] = biological target: T1, Mouse CD74 on cells (C57Black/6 PECs, MC-38, 3LL) (mouse); assay: FACS, PECs of WT mice, APC-labeled MIF 200ng alone (cells without MIF: 22.4)
[5] = biological target: T2, Recombinant human CD74 73-232 (human, UniProt P04233 73-296); assay: BIAcore SPR, biotinylated Nb_49 on streptavidin chip, recombinant human CD74 73-232 at 0.05-500 nM as analyte
T2 construct: Bought from R&D Systems (NP_004346.1); The entry includes the N-terminal hemagglutinin tag; also called R&D systems 3590-CD
T2 sequence: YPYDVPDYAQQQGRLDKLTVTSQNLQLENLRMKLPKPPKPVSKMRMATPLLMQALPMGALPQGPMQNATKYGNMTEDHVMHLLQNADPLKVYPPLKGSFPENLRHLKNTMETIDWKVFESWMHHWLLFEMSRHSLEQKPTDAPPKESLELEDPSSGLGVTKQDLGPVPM

[6] = biological target: T1, Mouse CD74 on cells (C57Black/6 PECs, MC-38, 3LL) (mouse); assay: FACS competition, PECs of MIF-/- mice, APC-labeled MIF 200ng as competitor/tracer plus Nb_49 (5 ug or 0.3 nM)
[7] = biological target: T1, Mouse CD74 on cells (C57Black/6 PECs, MC-38, 3LL) (mouse); assay: FACS competition, PECs of WT mice, APC-labeled MIF 200ng as competitor/tracer plus Nb_49 (5 ug or 0.3 nM)

B1: Recombinant human MIF 2-115 (ligand)
chain: PMFIVNTNVPRASVPDGFLSELTQQLAQATGKPPQYIAVHVVPDQLMAFGGSSEPCALCSLHSIGKIGGAQNRSYSKLLCGLLAERLRISPDRVYINYYDMNAASVGWNNSTFA
mean fluorescence intensity of APC-labeled MIF bound to the cells [1]: 49.9 | mean fluorescence intensity of APC-labeled MIF bound to the cells [2]: 120 | mean fluorescence intensity of APC-labeled MIF bound to the cells [3]: 61 | mean fluorescence intensity of APC-labeled MIF bound to the cells [4]: 64.8

B2: NbhCD74n49 (VHH)
VHH: QVQLQESGGGSVQAGGSLRLSCVASGLVYSLKAYDWGWARQAPGKECELVGRIMPNGATVYIDSVKGRFIISRENSNNTVYLQMNSLKFEDTAVYYCARVGDPSGGWCKGQGTQVTVSS
notes: also called Nb_49; NB_49
Kd [5]: 5.73 nM | koff [5]: 0.000581 s⁻¹ | kon [5]: 102000 M⁻¹ s⁻¹ | mean fluorescence intensity of APC-labeled MIF bound to the cells [6]: 69.4 | mean fluorescence intensity of APC-labeled MIF bound to the cells [7]: 46.2
